The nature of the series: label from the status in PepcDB records.

Experimental findings from a protein production outcome set (Wang et al. 2014) are described below.

As to “MTNKQKMRKRRRALLCVFAAFAFSFNPLGKIAYATPKQDTSVVNYVKTQEETSNSIQNQPISSYWYPEDLLKWSANNDKDAKFNKSTVPLAKRVEKDKLDTINDTQNKDVKVVAISIMNANTSGNPSQGSNKFSANTFSYWQYIDKLVYWGGSAGEGLIVPPSPDVTDSAHRNGVPVLGTVFFPMTAHGGKMEWLNKFLEKDANGNFPIVDKLIEVAENYGFDGWFINQETEGTEQEPLTPEHAKLMQELIKQFKAKSNGKFEIMWYDSMTKDGDMDWQNALTDKNEYFLLDGDKNKVADSIFLNFWWTYNSLKDKDLLRVSNEKAKEIGINPYDLYAGIDVQANGYKTPLRWTHYQRDDQAPFTSLGLYCPSWTYFDAKTPEQFQENENRLWVNEHGDPSKTTNAQGVDWRGISTYSVEKSAVTSLPFTTNFNIGNGYDFYVDGNKVSTQDWNNRSLNDIMPTYRWVISNEENNNVKADIDYTTAYYGGNSIKLSGYLAEGKASTIKLYSSDLTLPEGVQFTTTAKANGNTVDMDLVLTFHDGTETTISADKKLGTDWTKLNYDVSPYVGKSIKTISYKLSSPVCVDNFSANLGNITIEIPNSSSKVNISNAKLNDVDFKDGIYAGARLSWSPEGNSSDVHHYEIYRVMNDGTKVLLGATPNTSYYVSDLRRNDKETNTNFEVVAVNKNFNRGNSQSINMEWPAYPAPTASFKVSNTLIAPGQSVTFTNTSSEVTEEIQWKFPGAKVESSTEQNPTVTYEKEGVYPVILTAKNSSGENVETKTELITVTNAAKDGLVNLSLNKSAKASSFVNENEAPQYALDGNVKTKWCAVGSAPHTLTIDLGDIKTIGELEISHAEAGGESSGMNTKAYSFEVSNDGENFTPVLNVDDNTKAISNDAFPVTKARYVRLNIIQPTQGADSAARIYEVAVKGLDGNVDLPPVMNPDDSNKPVDPDQPENPDKPNNPEKPENPDNPGNTDKPVNPDQPGDSEKPETPNKPGDTENPEGKPANPSDLVSKEITENSALLSWKAPEKVESIQEYVVYQDGKEIGRVPTDKTPLEFLVKDLKPNTKYNFEVSSIDKDGKESDKISLEVTTKKKDNGNLPNTGSPIGAGALATTGIALSSAGVYLTLKKKRK”, the protein production result is reported as “failed”.
The result for “MTNLFLGFLVISFCLLGNLIHAADGSIHDYNNSGGFTKIANARYFVGGSEGIYGSEFLDVHHASSDTPLLKGNSFIRFDDITFVRTKESASKQNSTLAAAGLVEAILFEVKQRDRVGGSFFKSEDMCCTPKLADAGSCNLGEVMISADPNDPEWPKRIPTFFKRGEEEVKMSPEAVIIKKTGLYTVYFMTCDPELDGATIRGRTVWKNRGGYLQGEKAPLKKFYASMLLAYVVLGLVWFPQVAQYWKDGIQLHSHINFVIAFTMGELAFLYLDFVYLDSAGTSPMEVTVWAITLSSMRKALSRLLLLVISSGFGIVRPTLGGITLKMLLIGVLCFVISESLGLAMQFGNISENGMNYLMLSWAILETCFIQWIFRSLSKTLKKLKLNKRNITKLQLYKMFATVLVIMVVLSFAWIYVEVYLYSSLSQFWKVKWIVPTLWYILSYAMLVLICLFWPPSEKPMRYLYVADMEEETEEEDDLSTAETGMNATKAEYERSERKTLLEAFILLLGNIPGEK” reads “failed”; that for “MTNMRQVLKTDRLVLEPQSMARFDQWFAMERQRDEAGHRDLTEDQAWLRLCARQGMWDAYACGFYYLLDPVSGEMRGEAGFQFRRRGFGPGFDNHPEAAWAVASAHQGRGLAAEAMQALLAHHDRSSGRQRVVALIARSNLPSLRLAERLGFRGYSDVAFDGAAHLLLERAG”, “not failed”; that for “MTNNAKKEPQQRGKHQVHNVRFYTIKPREIVSLAYSKSSKCLALSRATPVIELWNLEHAPYLDRVIHLPTDSHVESIAWAGNRLFSVDLSGKLIEWDVIKLKQRYEHSPTGNALWSIDVNPAETDIAIGSEEGHINILSIENDEITYKSLFNKQKGRVLCIKFDKTGTKLVTGTEGFVRIWNVLKGTTLHTMTLSEKNVIVWSLQVLSDNTIIAGDSAGFVTVWDADNATQIDSTRVLDKNVFALAVNNKEDRLVCSGMQPPLIRIFSKTKIKREESTSERWIKFLQRDAHKHYVKSLLVIDDQIYSGGRDGILTITSSERMQAHLSQHAPFLKGSVASMAISKKLLLLRYPNSVHLWRLGSVAPQGEDKKKPWALPVGHTEEQLLELPPQKLLQLNVKEHNFIQSAAISSDANWICYSTLKELRISRLKSDPLQVERLVDDLPEELQPASHIIFTKQGDLVLLNPQNNHLSWFTLEEDLVTFKYTIDLSEKCKNTISHVVISSHGEYIVAASSDHIISVWKLHGKQYKHLLNLPRHRAGTTALSMHEDYPRVVVAYANGQLVEYDLVNRIFTCETNEYLIPETRRHCINGISLDPQNRNIFIVHTEGNLYVLERDQHLDPKELVSNSKSKKLSNGNRSSVDGGSKGLSLKTTLSRQHLVHVSRLSPNELVNVSISTNNLLAPLPPPYQRKKFGAS”, “failed”.
The result for “MTNTHEINALKKYVRATNFLATSQIYLKQNVLHKRPLAHSDIKPRLLGHWGTCPGINFVYANINRLIVKHNRPFIYLVGPGHGFPAVQANLFIEGSLSHFYPETIPYNETGIEDICKKFSAAYGYPSHANPEAPGQILEGGELGYSLSVGWGAVLDNPDLIATVLVGDGESETGPLAASWYANRLVSPATNGAVLPIVHINGYKISGPTRMGRMSHEELDLEFRGLGYHPIIVDSEAEEDVYIQMATAMDTAYSMINDIQTRARKGEDIVK” reads “failed”; that for “MTPASAVPAHPCPPGPNALRRRLLQAALSTGVLASIGTAAPAAASAHATSTPSKPMDLYAYVGSRTTRERNARGDGISVFRVDTQTGGLAPVQLVKDLVNPSFLALNPAGDRLYTVHGDLADISAFAVDRASGRLSFINRQSTQGKNPVHLALDPSGRFVVVTNHIGASLAVLPLAADGALGEVTQLVKLDGPIGPHRIEQKQAKPHFNRFDPAGRFVIVPDKGLDRTFAFRFAEGRLTPATPSFVSAREGAGPRHVAFRPDGRVAYVVNELDSTVTTYGYDAGTATLTPLQVLPSLPDTFTGNSRASEIKVDAAGRFVYASNRGHDSIAVFRIDAASGLLRFVAAEPSLGRTPRFFTIAPGGRFLYALNEDSDSIVAFAIDPHTGRLHPTGTRAQSGSPVCMVFSTPAA”, “failed”.
On to “MTPDDFDRFWPTFQAIVQARETYAFDPALSFEQARQLWLELPLHTLLAEEDGELLGSYYLKPNAAGPGAHVGNCGYMVCEQARGRGVARLMCEHSQKLARQEGFLALQFNSVVASNEVAVALWHKLGFETVGRLPKAYRHARLGLVDCLVMYKWLAD”, for which the protein production result is reported as “failed”.
The result for “MTPEQLMSLRATFRSPRRLLTESLAGLVVALALIPEAIAFSVIAGVDPRIGLFASFTMGVVTAIVGGRPAMISAATGAVALVIAPVMKEHGLDYLIATIILAGVFQIILAVLGVTKLMRFIPRSVMIGFVNALAILVFMSQMPELFDVPWMVYPIVVVGLVIVFGLPRITTAIPAPLVAIVAITLVTVLGNVDVPTVSDKGELPDSLPGFFLPNVPLNLETFQIIAPFALSMALVGLLESLMTAKLVDDITDTRSNKTRVSWGQGAANIVTGFLGGLGGCAVIGQTMINVKGSGARSRLSTFLAGVFLLILVVVLGDVVGMIPMAALVAVMIFVSLITFDWHSIRPSTLKRLPKSETAVMLITVAAVVATHNLAVGVGVGVVTAMVLFARRVAHFATVERTELELNGERVATYTVDGELFFASSNDLYTQFDYAKDSSDGIDRVIIDLHGSHIWDASTVAVLDSVTEKYRNHGREVEFIGLNEASVRMRERLAGKLNS” reads “failed”; that for “MTPFENLSELPAQNTRFNGRAGMGTWLVNRLLNNIERGRLRVTLPGGGTIEKSGHQEGSEAILMLHNWRAIRRVLVNGDIGFAEGFIENDWSTPDLTALIRFAAQNQDAFARSTRGSLPMRLINRMAHALNANTRRGSRRNIEAHYDLGNEFYRQWLDPSMLYSSAIFDDTTPTLEAAQRKKLERIAEKLQLTGNNSVLEIGCGWGALAIHLATQQNADVTGITLSPSQLRWAENAAEKESKAGRIDLRLQDYRDVQGQFDNIVSVEMFEAVGESYWPSYFEMLKRCLKPGGRAVLQIISIDESRFDTYRRKADFIQKYVFPGGFLPSDSALEKSVGQAGLKLTETELFGQSYALTLAEWRQRFHARWQTISLLGFDERFRRLWDYYLCYCEAGFAEGTINVGLYTIEHG”, “failed”; that for “MTPLVSRLSRLWAIMRKPRAAVGSGHRKQAASQEGRQKHAKNNSQAKPSACDGLARQPEEVVLQASVSSYHLFRDVAEVTAFRGSLLSWYDQEKRDLPWRRRAEDEMDLDRRAYAVWVSEVMLQQTQVATVINYYTGWMQKWPTLQDLASASLEEVNQLWAGLGYYSRGRRLQEGARKVVEELGGHMPRTAETLQQLLPGVGRYTAGAIASIAFGQATGVVDGNVARVLCRVRAIGADPSSTLVSQQLWGLAQQLVDPARPGDFNQAAMELGATVCTPQRPLCSQCPVESLCRARQRVEQEQLLASGSLSGSPDVEECAPNTGQCHLCLPPSEPWDQTLGVVNFPRKASRKPPREESSATCVLEQPGALGAQILLVQRPNSGLLAGLWEFPSVTWEPSEQLQRKALLQELQRWAGPLPATHLRHLGEVVHTFSHIKLTYQVYGLALEGQTPVTTVPPGARWLTQEEFHTAAVSTAMKKVFRVYQGQQPGTCMGSKRSQVSSPCSRKKPRMGQQVLDNFFRSHISTDAHSLNSAAQ”, “failed”.
In the case of “MTPMPSSVKPVEGRSVLIEWQDGHSSLYENVYLREHCQCAECVHEWTGEKLISRERIPADIRPVSVSAVGNYALSIRFSDGHGTGVYSYELLRKICPCPLCKA” it was “failed”; in that of “MTPNEDLIEIFEDEEISPSLTAKTWPILIVDDDQDVHDVSRLALRGVRLLDYDLETLHAYSAAQARAILSSRSDIAVALLDVVMEREDAGLDLVRWIRSDPARDLLRIVLRTGQPGYAPEATVIQDYDINDYRTKSELNRGRLISILTTALRSYRQMAVIAASRDGLDKIVRASADLLASPSMAIFAEGVLTQLAGLLGTERSGIVLARRNRRPGATASMAMTGDEGFVLAAAGPLSADIGRPLSDIGDHQTAEILRRTLESRRSSFDHGSMALYIATPNGDSLAVLMEVAKTLGDTDRKLVEVFCVNMAAGFDTISLFEQISLQAFHDEATGLPNLAACQSLIDQYLQRRQPVAVTFFSLEGFSAISDTLGRVIGDRMIGLLANAFRHRLQERGEVFRVGQETLATVIGGPVDQVGPLADQLAGDFRAGLPLDSMTLPVSFSHGTSVSTSEHDTAQILVQRAGIAMQKARNIKRGGGLTYAVAMEEEIRAHIGVISKLGAGVVSEAFVAVFQPKIRLADRSCHGGEALVRWRDGDGTMIAPSLFIPAAETSGHIVDIGYSVFRQSCAMIRSLKVSQDDARIAVNLSVRQMREPDLIDKLVSIAAEEGVATTRLKLEITESIVIDDLTHTVSLLKALKDKGFLLALDDFGTGYSSLSYLRSLPIDTLKIDRSFVSGLAEQADMRKIVGLIIGLGHELGFDITAEGVETEEEARIVTEMGCFTAQGYLFSKPLSAEDFLVFARTHAGARQTSGGSLSAEGCIRARDA”, “failed”; in that of “MTPQNTIARELLFLALLSTLWAASYTFIKIGVETIPPLTFIAARTLIAGLLLLVVIRLRGLRLPRDPATWRLFFVQACINSVLPFTLIAWAEQSIDAGLAVILNATTPIFTFLLTALVIRHETVSGRKLFGTIAGMTGVCLIIGVEALGGAGEAIWSQLAVLTAAFSYACAAIFSKNFKGLDPVMPAAGSLICGAVLLLPVSLIVDRPWTLSPSAASLTALVCLSVFSTALAFMIYFRLMQTLGSVGTTSQAYLRVPVGVAIGMVFLGEVPTSAMWVGLVCVIAGVLAMTLPSRRRPATQGG”, “failed”.
Regarding “MTPQRATLTGMLAIILWSTSVGLIRSLTEALGPIGGAAMIYSTSTLCLLVFYGLPRIKTLPRIYLFAGGALFVCYEIFLSLSIGLADSRMQAMEIGMINYLWPSLTILFSLFINQQKSRFLLWPGLVISLGGIVWIMKGESDWTPELLWNNILANPLAYSLAFSAALTWALYCNITKRYGQGKSGVSLFFFIASLVLWIQYSFSAEGPISLTLPSSLELLFMGASAALAYSAWNAGIQYGNLTLLATASYFTPVLSTLLAAIWLNITPAISFWQGVAMVTAGSLLCWYATRSSTR”, the protein production entry is given as “failed”.
